Results reported in patent US20250282892A1 (published 2025).

B1: Patri-Matu-Fc (bispecific antibody)
heavy: not shown
light 1: not shown
light 2: DIQMTQSPSSLSASVGDRVTITCSASSSVTYMYWYQQKPGKAPKLLIYDTSNLASGVPSRFSGSGSGTDYTFTISSLQPEDIATYYCQQWSSHIFTFGQGTKVEIKRTVAAPSVFIFPPSDEQLKSGTASVTCLLNNFYPREAKVQWKVDNALQSGNSQESVTEQDSKDSTYSLVSTLTLSKADYEKHKVYACEVTHQGLSSPVTKSFNRGEC
B2: BMX003-011 (humanized Patri-Cetu-Fc modified) (bispecific antibody)
heavy: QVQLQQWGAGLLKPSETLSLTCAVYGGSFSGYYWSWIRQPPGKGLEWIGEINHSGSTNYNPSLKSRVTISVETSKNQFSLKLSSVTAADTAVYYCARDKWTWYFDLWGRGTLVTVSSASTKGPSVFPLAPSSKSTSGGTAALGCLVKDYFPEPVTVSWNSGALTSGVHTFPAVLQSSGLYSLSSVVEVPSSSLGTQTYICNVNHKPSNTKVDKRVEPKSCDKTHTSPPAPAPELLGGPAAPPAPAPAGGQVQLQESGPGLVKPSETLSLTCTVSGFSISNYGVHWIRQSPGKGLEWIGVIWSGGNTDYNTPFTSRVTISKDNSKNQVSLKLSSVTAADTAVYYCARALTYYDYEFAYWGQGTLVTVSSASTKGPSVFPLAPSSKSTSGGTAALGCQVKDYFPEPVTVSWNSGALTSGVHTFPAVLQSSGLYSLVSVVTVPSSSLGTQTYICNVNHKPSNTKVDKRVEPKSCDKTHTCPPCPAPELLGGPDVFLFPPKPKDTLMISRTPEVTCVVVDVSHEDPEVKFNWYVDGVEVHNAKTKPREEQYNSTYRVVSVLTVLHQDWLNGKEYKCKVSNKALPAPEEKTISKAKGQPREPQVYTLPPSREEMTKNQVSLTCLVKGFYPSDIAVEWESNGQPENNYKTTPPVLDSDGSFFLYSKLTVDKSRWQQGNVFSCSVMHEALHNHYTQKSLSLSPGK
light 1: not shown
light 2: EIVLTQSPDFQSVTPKEKVTITCRASQSIGTNIHWYQQKPDQSPKLLIKYASESISGVPSRFSGSGSGTDFTLTINSLEAEDAATYYCQQNNNWPTTFGAGTKLEIKRTVAAPSVFIFPPSDEQLKSGTASVTCLLNNFYPREAKVQWKVDNALQSGNSQESVTEQDSKDSTYSLVSTLTLSKADYEKHKVYACEVTHQGLSSPVTKSFNRGEC
B3: BMX003-010 (humanized Patri-Cetu-Fc) (bispecific antibody)
heavy: not shown
light 1: not shown
light 2: B2 light 2

Experiments:
[1] = target: HER3 tag free antigen (immobilized) (UniProt P21860 20-643); test: ELISA; dual-binding sandwich: immobilized HER3-Fc + EGFR-His
[2] = target: EGFR tag free antigen (immobilized) (UniProt P00533 25-645); test: ELISA; dual-binding sandwich: immobilized EGFR-Fc + HER3-His
[3] = target: EGFR His tag (UniProt P00533 25-645); test: ELISA
[4] = target: HER3 His tag (UniProt P21860 20-643); test: ELISA

Binder | EC50 [1] | EC50 [2] | EC50 [3] | EC50 [4]
B1 | 0.55 nM | 170 nM |  | 
B2 |  |  | 0.013 nM | 0.0259 nM
B3 |  |  | 0.0155 nM | 0.0223 nM
